Measurements as given in PMC9169624, “Human HELB is a processive motor protein that catalyzes RPA clearance from single-stranded DNA” (Proceedings of the National Academy of Sciences of the …, 2022).

Biological target: human Replication Protein A (RPA) complex (human) (UniProt P27694)
Sequence (P27694 whole entry, chain 1 of 3): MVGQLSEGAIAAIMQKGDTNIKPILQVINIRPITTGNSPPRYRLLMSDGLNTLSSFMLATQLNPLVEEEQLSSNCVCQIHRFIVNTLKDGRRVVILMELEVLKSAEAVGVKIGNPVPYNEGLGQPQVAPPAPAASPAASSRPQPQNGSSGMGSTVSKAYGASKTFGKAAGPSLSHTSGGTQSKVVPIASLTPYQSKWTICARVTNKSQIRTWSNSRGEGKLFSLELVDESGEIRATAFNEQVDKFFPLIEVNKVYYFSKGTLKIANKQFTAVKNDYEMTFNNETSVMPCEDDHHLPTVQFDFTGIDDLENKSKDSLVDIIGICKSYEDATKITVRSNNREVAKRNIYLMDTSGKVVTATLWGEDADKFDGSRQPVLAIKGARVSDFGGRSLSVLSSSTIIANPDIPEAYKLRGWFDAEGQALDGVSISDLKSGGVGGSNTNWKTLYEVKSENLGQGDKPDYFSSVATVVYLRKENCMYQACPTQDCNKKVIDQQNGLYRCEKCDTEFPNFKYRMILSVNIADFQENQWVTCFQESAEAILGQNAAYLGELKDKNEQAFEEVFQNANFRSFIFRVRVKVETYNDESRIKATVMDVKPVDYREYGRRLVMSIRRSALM
Sequence (P15927 whole entry, chain 2 of 3, further chain): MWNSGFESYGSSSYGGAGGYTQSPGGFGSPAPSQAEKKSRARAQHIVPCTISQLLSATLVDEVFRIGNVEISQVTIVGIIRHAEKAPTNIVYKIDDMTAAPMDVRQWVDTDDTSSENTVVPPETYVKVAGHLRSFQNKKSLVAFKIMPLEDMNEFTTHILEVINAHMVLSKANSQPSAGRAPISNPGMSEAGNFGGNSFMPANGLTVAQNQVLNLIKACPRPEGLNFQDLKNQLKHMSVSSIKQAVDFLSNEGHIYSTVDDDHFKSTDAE
Sequence (P35244 whole entry, chain 3 of 3, further chain): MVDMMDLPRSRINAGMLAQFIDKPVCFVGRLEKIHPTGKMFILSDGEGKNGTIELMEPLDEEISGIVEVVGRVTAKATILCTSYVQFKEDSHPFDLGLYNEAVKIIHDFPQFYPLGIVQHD

Human DNA helicase B (HELB), sequence (Q8NG08 whole entry): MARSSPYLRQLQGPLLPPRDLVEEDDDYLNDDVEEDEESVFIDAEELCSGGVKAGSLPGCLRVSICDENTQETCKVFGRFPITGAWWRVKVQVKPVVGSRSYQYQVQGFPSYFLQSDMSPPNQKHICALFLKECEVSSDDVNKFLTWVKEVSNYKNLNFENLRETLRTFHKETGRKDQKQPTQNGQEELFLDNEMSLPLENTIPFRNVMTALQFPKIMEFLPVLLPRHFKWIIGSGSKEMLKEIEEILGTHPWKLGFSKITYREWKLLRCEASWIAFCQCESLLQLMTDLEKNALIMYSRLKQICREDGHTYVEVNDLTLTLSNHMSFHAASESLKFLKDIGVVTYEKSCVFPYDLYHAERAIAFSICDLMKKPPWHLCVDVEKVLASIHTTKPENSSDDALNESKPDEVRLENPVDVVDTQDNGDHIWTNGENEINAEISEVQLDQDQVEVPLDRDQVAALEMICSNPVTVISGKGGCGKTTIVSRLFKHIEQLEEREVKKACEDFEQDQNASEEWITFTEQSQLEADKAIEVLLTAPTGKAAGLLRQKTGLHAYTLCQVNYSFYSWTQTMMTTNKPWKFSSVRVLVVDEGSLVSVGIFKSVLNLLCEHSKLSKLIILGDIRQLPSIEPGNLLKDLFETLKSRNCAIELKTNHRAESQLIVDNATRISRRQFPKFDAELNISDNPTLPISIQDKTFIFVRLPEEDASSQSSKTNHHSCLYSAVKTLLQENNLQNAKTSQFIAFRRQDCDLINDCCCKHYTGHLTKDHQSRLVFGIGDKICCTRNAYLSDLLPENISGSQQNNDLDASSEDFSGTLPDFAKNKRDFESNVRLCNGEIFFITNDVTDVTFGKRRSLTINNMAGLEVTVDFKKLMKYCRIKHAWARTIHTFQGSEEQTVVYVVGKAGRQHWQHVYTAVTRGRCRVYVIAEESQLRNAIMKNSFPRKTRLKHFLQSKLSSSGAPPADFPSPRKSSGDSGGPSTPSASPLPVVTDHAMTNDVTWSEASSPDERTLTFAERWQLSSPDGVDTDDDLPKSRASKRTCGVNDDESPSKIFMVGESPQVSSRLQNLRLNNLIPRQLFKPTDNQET

Human DNA helicase B (HELB) (from UniProt Q8NG08 1-1087) (enzyme)
observed rate of ATP hydrolysis by HELB at low φX174 ssDNA (0.1 × KDNA), RPA titrated from one RPA per 200 nt to one RPA per 20 nt: 8 fold
